Data as given in patent publication US20230242611A1 (YEDA RESEARCH AND DEVELOPMENT, published 2023).
Numbering of substitutions follows the chain as printed. In names and notes the source's numbering stands.

T1: MAGE-A1 peptide on HLA-A*02:01 (human)
T1 chain: KVLEYVIKV

T2: MAGE-A1 peptide on HLA-A*02:01 (human)
T2 peptide: KVLEYVIKV

T3: MAGE-A1 278-286 with alanine at position 6 peptide on HLA-A*02:01 (human)
T3 peptide: KVLEYAIKV

T4: MAGE-A1 278-286 with alanine at position 3 peptide on HLA-A*02:01 (human)
T4 peptide: KVAEYVIKV

T5: MAGE-A1 278-286 with alanine at position 9 peptide on HLA-A*02:01 (human)
T5 peptide: KVLEYVIKA

T6: MAGE-A1 278-286 with alanine at position 8 peptide on HLA-A*02:01 (human)
T6 peptide: KVLEYVIAV

T7: MAGE-A1 278-286 with alanine at position 1 peptide on HLA-A*02:01 (human)
T7 peptide: AVLEYVIKV

T8: MUC1 peptide on HLA-A*02:01 (human)
T8 peptide: LLLTVLTVV

T9: MAGE-A1 278-286 with alanine at position 5 peptide on HLA-A*02:01 (human)
T9 peptide: KVLEAVIKV

T10: MAGE-A1 278-286 with alanine at position 7 peptide on HLA-A*02:01 (human)
T10 peptide: KVLEYVAKV

T11: MAGE-A1 278-286 with alanine at position 2 peptide on HLA-A*02:01 (human)
T11 peptide: KALEYVIKV

T12: MAGE-A1 278-286 with alanine at position 4 peptide on HLA-A*02:01 (human)
T12 peptide: KVLAYVIKV

B1: hT27 TCR m2 (beta chain S109N) (TCR, V domains shown)
Valpha: GEDVEQSLFLSVREGDSSVINCTYTDSSSTYLYWYKQEPGAGLQLLTYIFSNMDMKQDQRLTVLLNKKDKHLSLRIADTQTGDSAIYFCAGSGGGTDKLIFGTGTRLQVFP
Vbeta: GAVVSQHPSWVICKSGTSVKIECRSLDFQATTMFWYRQFPKQSLMLMATSNEGSKATYEQGVEKDKFLINHASLTLSTLTVTSAHPEDSSFYICNAREPGQGPYEQYFGPGTRLTVT
B2: wild type (WT) hT27 TCR, MAGE-A1 specific (TCR)
TCR alpha: RGEDVEQSLFLSVREGDSSVINCTYTDSSSTYLYWYKQEPGAGLQLLTYIFSNMDMKQDQRLTVLLNKKDKHLSLRIADTQTGDSAIYFCAGSGGGTDKLIFGTGTRLQVFPNIQNPEPAVYQLKDPRSQDSTLCLFTDFDSQINVPKTMESGTFITDKTVLDMKAMDSKSNGAIAWSNQTSFTCQDIFKETNATYPSSDVPCDATLTEKSFETDMNLNFQNLSVMGLRILLLKVAGFNLLMTLRLWSS
TCR beta: AVVSQHPSWVICKSGTSVKIECRSLDFQATTMFWYRQFPKQSLMLMATSNEGSKATYEQGVEKDKFLINHASLTLSTLTVTSAHPEDSSFYICSAREPGQGPYEQYFGPGTRLTVTEDLRNVTPPKVSLFEPSKAEIANKQKATLVCLARGFFPDHVELSWWVNGKEVHSGVSTDPQAYKESNYSYCLSSRLRVSATFWHNPRNHFRCQVQFHGLSEEDKWPEGSPKPVTQNISAEAWGRADCGITSASYHQGVLSATILYEILLGKATLYAVLVSGLVLMAMVKKKNS
B3: hT27 TCR comprising G125V mutation in the alpha chain (m8) (TCR)
TCR alpha: B2 TCR alpha with G105V
TCR beta: B2 TCR beta
B4: hT27 TCR comprising T63I mutation in the beta chain (m3) (TCR, V domains shown)
V domain 1: RGEDVEQSLFLSVREGDSSVINCTYTDSSSTYLYWYKQEPGAGLQLLTYIFSNMDMKQDQRLTVLLNKKDKHLSLRIADTQTGDSAIYFCAGSGGGTDKLIFGTGTRLQVFP
V domain 2: AVVSQHPSWVICKSGTSVKIECRSLDFQATTMFWYRQFPKQSLMLMAISNEGSKATYEQGVEKDKFLINHASLTLSTLTVTSAHPEDSSFYICSAREPGQGPYEQYFGPGTRLTVTE
B5: hT27 TCR comprising S109N mutation in the beta chain (m2) (TCR, V domains shown)
V domain 1: B4 V domain 1
V domain 2: B4 V domain 2 with I48T, S94N
B6: hT27 TCR comprising W55L+Y56F mutations in the alpha chain (m9) (TCR, V domains shown)
V domain 1: EDVEQSLFLSVREGDSSVINCTYTDSSSTYLYLFKQEPGAGLQLLTYIFSNMDMKQDQRLTVLLNKKDKHLSLRIADTQTGDSAIYFCAGSGGGTDKLIFGTGTRLQVFP
V domain 2: B4 V domain 2 with I48T
B7: hT27 TCR m3 (beta chain T63I) (TCR, V domains shown)
Valpha: B1 Valpha
Vbeta: B1 Vbeta with T49I, N95S
B8: hT27 TCR with beta chain S32T and S109N mutations (TCR, V domains shown)
Valpha: B1 Valpha
Vbeta: B1 Vbeta with S18T
B9: hT27 TCR m7 (alpha chain G125A) (TCR, V domains shown)
Valpha: B1 Valpha with G104A
Vbeta: B1 Vbeta with N95S
B10: hT27 TCR m8 (alpha chain G125V) (TCR, V domains shown)
Valpha: B1 Valpha with G104V
Vbeta: B1 Vbeta with N95S
B11: hT27 TCR (TCR, V domains shown)
Valpha: B1 Valpha
Vbeta: B1 Vbeta with N95S

Molecular target: T1, MAGE-A1 peptide on HLA-A*02:01 (human)
Assay: intracellular IFNγ and IL2, 6 h; transduced human PBMCs; peptide-loaded T2 cells and 721.211-A2 cells that express the antigen; full-length, on cells
Conditions: chains Valpha:Vbeta

**Q.** How did the percent IFNγ+ cells towards 721.211-A2 cells turn out when B1 was run?
**A.** 49.7%

molecular target: MAGE-A1278-286 peptide presented on HLA-A2 on cells (peptide-loaded T2 cells; 721.211-A2 MAGE-A1+ cells) (human); assay: cell-based or functional assay; conditions: not given

**Q.** For B2, which “% IFNγ+ cells after co-culture with 721.211-A2 cells” value (shortened to “% IFNγ+ cells after co-culture”) is on record?
**A.** 3.3 % IFNγ+

**Q.** What about the “EC50 of IFNγ production (peptide concentration), T2 cells loaded with MAGE-A1 peptide” value (“EC50 of IFNγ production … with MAGE-A1 peptide” below) of the same binder?
**A.** 3540 pM

**Q.** For B3, which “% IFNγ+ cells after co-culture” value is on record?
**A.** 3.8 % IFNγ+

**Q.** And the “EC50 of IFNγ production … with MAGE-A1 peptide” value?
**A.** 0.982 pM

**Q.** And the “EC50 of IFNγ production against WT hT27” value?
**A.** ~4 orders of magnitude lower than WT hT27 TCR

**Q.** And the “EC50 of IL2 production against WT hT27” value?
**A.** ~3 orders of magnitude lower than WT hT27 TCR

**Q.** For B4, which “% IFNγ+ cells after co-culture” value is on record?
**A.** 6.9 % IFNγ+

**Q.** What about the “EC50 of IFNγ production … with MAGE-A1 peptide” value of the same binder?
**A.** 0.352 pM

**Q.** What about the “EC50 of IFNγ production against WT hT27” value of the same binder?
**A.** ~4 orders of magnitude lower than WT hT27 TCR

**Q.** And the “EC50 of IL2 production against WT hT27” value?
**A.** ~3 orders of magnitude lower than WT hT27 TCR

**Q.** What does the source list for B5?
**A.** % IFNγ+ cells after co-culture with 721.211-A2 cells: 49.7 % IFNγ+; EC50 of IFNγ production against WT hT27: ~4 orders of magnitude lower than WT hT27 TCR; EC50 of IL2 production against WT hT27: ~3 orders of magnitude lower than WT hT27 TCR

**Q.** What does the source list for B6?
**A.** % IFNγ+ cells after co-culture with 721.211-A2 cells: 5.4 % IFNγ+; EC50 of IFNγ production (peptide concentration), T2 cells loaded with MAGE-A1 peptide: 0.275 pM; EC50 of IFNγ production against WT hT27: ~4 orders of magnitude lower than WT hT27 TCR; EC50 of IL2 production against WT hT27: ~3 orders of magnitude lower than WT hT27 TCR

Molecular target: T1, MAGE-A1 peptide on HLA-A*02:01 (human)
Assay: intracellular IFNγ; transduced human PBMCs (donor I); peptide titration on T2 cells; unit not printed for m2 (the others in pM); minimal activity not reached; full-length, on cells
Conditions: chains Valpha:Vbeta

**Q.** How did the EC50 of peptide turn out when B1 was run?
**A.** 0.289

Molecular target: T2, MAGE-A1 peptide on HLA-A*02:01
Assay: multimer staining
Conditions: not given

**Q.** Does B7 bind?
**A.** recognises

**Q.** Does B8 bind?
**A.** recognises

**Q.** Does B9 bind?
**A.** recognises

**Q.** Does B10 bind?
**A.** recognises

Molecular target: T3, MAGE-A1 278-286 with alanine at …
Assay: cytokine release
Conditions: not given

**Q.** Does B1 bind?
**A.** recognises

**Q.** Does B7 bind?
**A.** recognises

**Q.** Does B11 bind?
**A.** no recognition

**Q.** Does B10 bind?
**A.** recognises

Molecular target: T4, MAGE-A1 278-286 with alanine at …
Assay: cytokine release
Conditions: not given

**Q.** Does B1 bind?
**A.** recognises

**Q.** Does B11 bind?
**A.** no recognition

Molecular target: T5, MAGE-A1 278-286 with alanine at …
Assay: cytokine release
Conditions: not given

**Q.** Does B1 bind?
**A.** recognises

**Q.** Does B7 bind?
**A.** recognises

**Q.** Does B11 bind?
**A.** recognises

**Q.** Does B10 bind?
**A.** recognises

Molecular target: T6, MAGE-A1 278-286 with alanine at …
Assay: cytokine release
Conditions: not given

**Q.** Does B1 bind?
**A.** recognises

**Q.** Does B7 bind?
**A.** recognises

**Q.** Does B11 bind?
**A.** no recognition

**Q.** Does B10 bind?
**A.** recognises

Molecular target: T7, MAGE-A1 278-286 with alanine at …
Assay: cytokine release
Conditions: not given

**Q.** Does B1 bind?
**A.** recognises

**Q.** Does B7 bind?
**A.** recognises

**Q.** Does B11 bind?
**A.** recognises

**Q.** Does B10 bind?
**A.** recognises

Molecular target: T8, MUC1 peptide on HLA-A*02:01
Assay: cytokine release
Conditions: not given

**Q.** Does B1 bind?
**A.** recognises

Molecular target: T9, MAGE-A1 278-286 with alanine at …
Assay: cytokine release
Conditions: not given

**Q.** Does B1 bind?
**A.** recognises

**Q.** Does B11 bind?
**A.** no recognition

Molecular target: T10, MAGE-A1 278-286 with alanine at …
Assay: cytokine release
Conditions: not given

**Q.** Does B1 bind?
**A.** recognises

**Q.** Does B7 bind?
**A.** recognises

**Q.** Does B10 bind?
**A.** recognises

Molecular target: T11, MAGE-A1 278-286 with alanine at …
Assay: cytokine release
Conditions: not given

**Q.** Does B1 bind?
**A.** recognises

**Q.** Does B7 bind?
**A.** recognises

**Q.** Does B10 bind?
**A.** recognises

Molecular target: T12, MAGE-A1 278-286 with alanine at …
Assay: cytokine release
Conditions: not given

**Q.** Does B1 bind?
**A.** recognises

**Q.** Does B11 bind?
**A.** no recognition

Molecular target: T8, MUC1 peptide on HLA-A*02:01
Assay: killing
Conditions: not given

**Q.** Does B7 bind?
**A.** no recognition

**Q.** Does B11 bind?
**A.** no recognition

**Q.** Does B10 bind?
**A.** no recognition
